Experimental data reported in patent US20190062420A1 (Janssen / Centocor, published 2019).

T1: human FcγRIIB (NM_004001) expressed on cells (human, UniProt P31994 43-310)
T1 construct: Transiently expressed on Expi293F cells; also called Expi293F FcγRIIB; HEK293F cells expressing FcγRIIB
T1 sequence: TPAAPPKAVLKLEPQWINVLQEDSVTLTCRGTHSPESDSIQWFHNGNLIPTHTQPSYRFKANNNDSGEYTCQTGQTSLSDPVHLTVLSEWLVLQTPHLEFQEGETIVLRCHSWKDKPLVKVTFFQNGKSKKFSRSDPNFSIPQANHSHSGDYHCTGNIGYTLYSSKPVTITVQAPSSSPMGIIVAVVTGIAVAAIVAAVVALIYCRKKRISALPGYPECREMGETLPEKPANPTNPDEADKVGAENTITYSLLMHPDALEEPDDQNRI

T2: human FcγRIIA (NM_021642) expressed on cells (human, UniProt P12318 36-317)
T2 sequence: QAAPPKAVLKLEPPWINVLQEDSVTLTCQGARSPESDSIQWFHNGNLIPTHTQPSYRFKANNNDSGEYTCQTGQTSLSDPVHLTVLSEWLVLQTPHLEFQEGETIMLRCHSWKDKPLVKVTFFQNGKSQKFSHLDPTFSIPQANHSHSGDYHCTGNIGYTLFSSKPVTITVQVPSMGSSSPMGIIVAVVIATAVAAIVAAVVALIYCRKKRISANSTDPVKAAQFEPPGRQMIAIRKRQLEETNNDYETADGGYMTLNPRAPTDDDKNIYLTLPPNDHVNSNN

T3: human OX40 expressed on HEK-Blue: OX40 cells (human, UniProt P43489 29-277)
T3 construct: also called CD134
T3 sequence: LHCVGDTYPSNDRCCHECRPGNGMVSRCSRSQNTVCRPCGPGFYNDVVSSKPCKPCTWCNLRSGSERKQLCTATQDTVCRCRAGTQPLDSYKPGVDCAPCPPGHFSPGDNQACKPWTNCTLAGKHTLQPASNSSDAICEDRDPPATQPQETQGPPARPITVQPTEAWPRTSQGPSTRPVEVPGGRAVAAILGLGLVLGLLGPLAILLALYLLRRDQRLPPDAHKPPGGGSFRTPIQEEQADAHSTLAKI


Assays:
[1] = target: T1, human FcγRIIB (NM_004001) expressed on …; assay: flow cytometry; Raji cells (express predominantly FcγRIIB)
[2] = target: T2, human FcγRIIA (NM_021642) expressed on …; assay: cell-based or functional assay
[3] = target: T3, human OX40 expressed on HEK-Blue: OX40 …; assay: flow cytometry; HEK-Blue: OX40 cells
Protocol: (§1) 2×10⁵ cells per well were seeded in 96-well plate and blocked in BSA Stain Buffer (BD Biosciences, San Jose, USA) for 30 min at 4° C. Cells were incubated with test mAbtyrin on ice for 1.5 h at 4° C. After being washed twice with BSA stain buffer, the cells were incubated with R-PE labeled anti-human or anti-mouse IgG secondary antibody (Jackson Immunoresearch Laboratories) for 45 min at 4° C. The cells were washed twice in stain buffer and then resuspended in 150 μL of Stain Buffer containing 1:200 diluted DRAQ7 live/dead stain (Cell Signaling Technology, Danvers, USA). PE and DRAQ7 signals of the stained cells were detected by Miltenyi MACSQuant flow cytometer (Miltenyi Biotec, Auburn, USA) using B2 and B4 channel respectively. Live cells were gated on DRAQ7 exclusion and the geometric mean fluorescence signals were determined for at least 10,000 live events collected. FlowJo software (Tree Star) was used for analysis. Data was plotted as the logarithm of antibody concentration versus mean fluorescence signals. Nonlinear regression analysis was performed by GraphPad Prism 6 (GraphPad Software, Inc.) and EC₅₀ values were calculated.
The binding of mAbtyrins on OX40 expressed on cell surface were investigated by flow cytometry assay described for testing mAbtyrin binding to FcγR. A stable HEK-Blue reporter cell line expressing human OX40 (HEK-Blue: OX40) was established by transfection OX40 expression plasmid (pUNO1-hOX40) into HEK-Blue™ Null 1 cells engineered to express a secreted embryonic alkaline phosphatase (SEAP) reporter gene under the control of NF-κB-inducible promoter (IFN-β minimal promoter). mAbtyrins were incubated with HEK-Blue: OX40 cells and the binding was detected by flow cytometry using a PE-labeled Goat F(ab′)₂ against Human IgG(γ).

[4] = target: T1, human FcγRIIB (NM_004001) expressed on …; assay: cell-based or functional assay
[5] = target: T1, human FcγRIIB (NM_004001) expressed on …; assay: flow cytometry; Raji cells (express predominantly FcγRIIB); remark: listed apart in the source
Protocol: as §1
Raji cell is a cell line derived from B cells that express predominantly FcγRIIB. The binding of mAbtyrins on Raji cells were investigated by flow cytometry assay described for testing mAbtyrin binding to FcγR. Binding of the mAbtyrins were detected by flow cytometry using a PE-labeled Goat F(ab′) against Human IgG(γ).

[6] = target: T2, human FcγRIIA (NM_021642) expressed on …; assay: flow cytometry; Expi293F cells transfected with FcγRIIA
Protocol: (§2) Plasmids expressing cDNAs encoding human FcγRI (NM_000566) (SEQ ID NO: 44), FcγRIIA (NM_021642) (SEQ ID NO: 2), FcγRIIB (NM_004001) (SEQ ID NO: 3), and FcγRIIIA (NM_000569) (SEQ ID NO: 45) (Origene) were transiently transfected into Expi293F cells by ExpiFectamine293 transfection kit (Life Technologies). Flow cytometry assays were performed 48 h after transfection.
as §1

[7] = target: T1, human FcγRIIB (NM_004001) expressed on …; assay: flow cytometry; Expi293F cells transfected with FcγRIIB
Protocol: as §2, §1

fold binding signal over OX40SF2IgG2sigma at 10 µg/mL [1]	Binding to HEK-Blue: OX40 cells (mean signal at 1 µg/ml) [3]	% activity at 1 µg/ml with Raji cells (HEK-Blue: OX40 NF-κB reporter, relative to 1 µg/ml OX40 ligand) [4]	fold of agonism enhancement upon crosslinking (Raji cells) [4]	Binding to Raji cells mean signals at 10 µg/ml [5]	EC50 [5]	EC50 [6]	EC50 [7]	Binder	% OX40 cell killed by macrophages (ADCP, 1 µg/ml) [2]
≥ 6 fold	8900 mean fluorescence signal	88.1%	21 fold	3260 mean fluorescence signal	> 10 mg/L	0.498 mg/L	1.51 mg/L	OX40SF2IgG2sigma_R2BS9_HC-C (bispecific antibody, mAbtyrin: anti-OX40 antibody OX40SF2, effector silent IgG2sigma, with linker and R2BS9 FN3 domain at the C-terminus of the heavy chain; also called mAbtyrin) heavy: QVQLVQSGAEVKKPGSSVKVSCKASGYTFKDYTMHWVRQAPGQGLEWIGGIYPNNGGSTYNQNFKDRVTLTADKSTSTAYMELSSLRSEDTAVYYCARMGYHGPHLDFDVWGQGTTVTVSSASTKGPSVFPLAPCSRSTSESTAALGCLVKDYFPEPVTVSWNSGALTSGVHTFPAVLQSSGLYSLSSVVTVPSSNFGTQTYTCNVDHKPSNTKVDKTVERKCCVECPPCPAPPAAASSVFLFPPKPKDTLMISRTPEVTCVVVDVSAEDPEVQFNWYVDGVEVHNAKTKPREEQFNSTFRVVSVLTVLHQDWLNGKEYKCKVSNKGLPSSIEKTISKTKGQPREPQVYTLPPSREEMTKNQVSLTCLVKGFYPSDIAVEWESNGQPENNYKTTPPMLDSDGSFFLYSKLTVDKSRWQQGNVFSCSVMHEALHNHYTQKSLSLSPGKGGGGGSGGGGSGGGGSGGGGSLPAPKNLVVSRVTEDSARLSWTAPDAAFDSFWIYYLEYWRGGEAIVLTVPGSERSYDLTGLKPGTEYFVQIHGVKGGQYSYPLSAIFTT light: DIQMTQSPSSLSASVGDRVTITCKASQDVGAAVAWYQQKPGKAPKLLIYWASTRHTGVPSRFSGSGSGTDFTLTISSLQPEDFATYYCQQYINYPLTFGGGTKVEIKRTVAAPSVFIFPPSDEQLKSGTASVVCLLNNFYPREAKVQWKVDNALQSGNSQESVTEQDSKDSTYSLSSTLTLSKADYEKHKVYACEVTHQGLSSPVTKSFNRGEC	85%
≥ 6 fold	9710 mean fluorescence signal	96.3%	31 fold	2610 mean fluorescence signal	> 10 mg/L	0.302 mg/L	0.926 mg/L	OX40SF2IgG2sigma_R2BS12_HC-C (bispecific antibody, mAbtyrin: anti-OX40 antibody OX40SF2, effector silent IgG2sigma, with linker and R2BS12 FN3 domain at the C-terminus of the heavy chain; also called mAbtyrin) heavy: QVQLVQSGAEVKKPGSSVKVSCKASGYTFKDYTMHWVRQAPGQGLEWIGGIYPNNGGSTYNQNFKDRVTLTADKSTSTAYMELSSLRSEDTAVYYCARMGYHGPHLDFDVWGQGTTVTVSSASTKGPSVFPLAPCSRSTSESTAALGCLVKDYFPEPVTVSWNSGALTSGVHTFPAVLQSSGLYSLSSVVTVPSSNFGTQTYTCNVDHKPSNTKVDKTVERKCCVECPPCPAPPAAASSVFLFPPKPKDTLMISRTPEVTCVVVDVSAEDPEVQFNWYVDGVEVHNAKTKPREEQFNSTFRVVSVLTVLHQDWLNGKEYKCKVSNKGLPSSIEKTISKTKGQPREPQVYTLPPSREEMTKNQVSLTCLVKGFYPSDIAVEWESNGQPENNYKTTPPMLDSDGSFFLYSKLTVDKSRWQQGNVFSCSVMHEALHNHYTQKSLSLSPGKGGGGGSGGGGSGGGGSGGGGSLPAPKNLVVSRVTEDSARLSWTAPDAAFDSFLIAYAEYWEGGEAVVLTVPGSERSYDLTGLKPGTEYFVQINGVKGGFWSIPLSAIFTT light: DIQMTQSPSSLSASVGDRVTITCKASQDVGAAVAWYQQKPGKAPKLLIYWASTRHTGVPSRFSGSGSGTDFTLTISSLQPEDFATYYCQQYINYPLTFGGGTKVEIKRTVAAPSVFIFPPSDEQLKSGTASVVCLLNNFYPREAKVQWKVDNALQSGNSQESVTEQDSKDSTYSLSSTLTLSKADYEKHKVYACEVTHQGLSSPVTKSFNRGEC	92%
≥ 6 fold	16900 mean fluorescence signal	107%	15 fold	9120 mean fluorescence signal	9.91 mg/L	0.287 mg/L	1.05 mg/L	OX40SF2IgG2sigma_R2BS56_HC-C (bispecific antibody, mAbtyrin: anti-OX40 antibody OX40SF2, effector silent IgG2sigma, with linker and R2BS56 FN3 domain at the C-terminus of the heavy chain; also called mAbtyrin) heavy: QVQLVQSGAEVKKPGSSVKVSCKASGYTFKDYTMHWVRQAPGQGLEWIGGIYPNNGGSTYNQNFKDRVTLTADKSTSTAYMELSSLRSEDTAVYYCARMGYHGPHLDFDVWGQGTTVTVSSASTKGPSVFPLAPCSRSTSESTAALGCLVKDYFPEPVTVSWNSGALTSGVHTFPAVLQSSGLYSLSSVVTVPSSNFGTQTYTCNVDHKPSNTKVDKTVERKCCVECPPCPAPPAAASSVFLFPPKPKDTLMISRTPEVTCVVVDVSAEDPEVQFNWYVDGVEVHNAKTKPREEQFNSTFRVVSVLTVLHQDWLNGKEYKCKVSNKGLPSSIEKTISKTKGQPREPQVYTLPPSREEMTKNQVSLTCLVKGFYPSDIAVEWESNGQPENNYKTTPPMLDSDGSFFLYSKLTVDKSRWQQGNVFSCSVMHEALHNHYTQKSLSLSPGKGGGGGSGGGGSGGGGSGGGGSLPAPKNLVVSRVTEDSARLSWTAPDAAFDSFSIAYWEYRKGGEAIVLTVPGSERSYDLTGLKPGTEYFVLIYGVKGGWQSKPLSAIFTT light: DIQMTQSPSSLSASVGDRVTITCKASQDVGAAVAWYQQKPGKAPKLLIYWASTRHTGVPSRFSGSGSGTDFTLTISSLQPEDFATYYCQQYINYPLTFGGGTKVEIKRTVAAPSVFIFPPSDEQLKSGTASVVCLLNNFYPREAKVQWKVDNALQSGNSQESVTEQDSKDSTYSLSSTLTLSKADYEKHKVYACEVTHQGLSSPVTKSFNRGEC	91%
